Experimental data taken from the supplement of paper PMC10724198.
± gives the standard deviation of the averaged measurements.

Columns and labels:
Saccharomyces cerevisiae [1] = assay: protein stability index of tFT-peptide fusion (C-terminal peptide) (PSI (0-1 scale)); higher = more stable (slower turnover)
Procedure: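 MPS profiling in S. cerevisiae of the tFT-X12 degron library: putative degron peptides plus stable controls, 12 aa, fused to the C-terminus of a sfGFP-mCherry timer. Cells are FACS-sorted into 8 mCherry/sfGFP bins and deep-sequenced. PSI runs from 0 (unstable) to 1 (stable). Backgrounds are wild type, das1Δ and doa10Δ at 30 °C, and wild type, das1Δ, cdc34-1 and cdc53-1 at 37 °C; 2-3 technical replicates each.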

Saccharomyces cerevisiae [2] = assay: as above; settings: genetic background: wild type; temperature: 30 C
Saccharomyces cerevisiae [3] = assay: protein stability index of tFT-peptide fusion in deletion strain of DOA10 (PSI (0-1 scale)); higher = more stable (slower turnover)
Procedure: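 MPS profiling in S. cerevisiae of two library types built from selected 12-aa C-degron peptides (IN1, IN2, LN1, LN3, VN2, R1-R5, W1-W3, Atg1 and Rpa12 C-termini): saturation mutagenesis libraries and C-terminal +1 capping libraries (13 aa). Each peptide is fused to the C-terminus of a sfGFP-mCherry timer, after a GGGS linker. Cells are FACS-sorted into 8 mCherry/sfGFP bins and sequenced. PSI runs from 0 (unstable) to 1 (stable), measured once in wild type and in the das1Δ or doa10Δ background.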

Saccharomyces cerevisiae [4] = assay: protein stability index of tFT-peptide fusion in wild type (PSI (0-1 scale)); higher = more stable (slower turnover); settings: genetic background: wild type
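Throughout, for protein stability index of tFT-peptide fusion (C-terminal peptide): PSI is a weighted mean of sequencing reads over stability bins, variants kept only with over 10 reads, mCherry proximal and sfGFP distal, peptide attached via GGGS linker.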
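Throughout, for protein stability index of tFT-peptide fusion in deletion strain of DOA10: PSI per variant is the weighted mean of its sequencing read distribution over the sorted stability bins, counting only variants with over 10 reads summed across bins.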
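Throughout, for protein stability index of tFT-peptide fusion in wild type: PSI derived as read-weighted mean over the 8 sorting bins, only variants exceeding 10 total reads kept, mCherry placed adjacent to the peptide and sfGFP distal.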

Sequence	protein stability index (Saccharomyces cerevisiae [3])	protein stability index (Saccharomyces cerevisiae [4])	also measured
GLYMCSVGCWFR	0.629	0.264	protein stability index (Saccharomyces cerevisiae [1]; genetic background: cdc34-1, temperature: 37 C): 0.104 ± 0.0033; protein stability index (Saccharomyces cerevisiae [1]; genetic background: cdc53-1, temperature: 37 C): 0.0717 ± 0.0099; protein stability index (Saccharomyces cerevisiae [1]; genetic background: das1 deletion, temperature: 30 C): 0.223 ± 0.033; protein stability index (Saccharomyces cerevisiae [1]; genetic background: das1 deletion, temperature: 37 C): 0.2809 ± 0.001; protein stability index (Saccharomyces cerevisiae [1]; genetic background: doa10 deletion, temperature: 30 C): 0.586 ± 0.011; protein stability index (Saccharomyces cerevisiae [1]; genetic background: wild type, temperature: 30 C): 0.231 ± 0.018; protein stability index (Saccharomyces cerevisiae [1]; genetic background: wild type, temperature: 37 C): 0.252 ± 0.0062; protein stability index (Saccharomyces cerevisiae [2]): 0.408 ± 0.085
RSARVLLPLYFR	0.687	0.336	–
RSLRPLLPLYFR	0.688	0.316	–
RSLRVLCPLYFR	0.652	0.305	–
RSLRVLFPLYFR	0.684	0.196	–
RSLRVLKPLYFR	0.675	0.304	–
RSLRVLLFLYFR	0.45	0.21	–
RSLRVLLPLAFR	0.652	0.37	–
RSLRVLLPLYCR	0.457	0.266	–
RSLRVLLPLYFC	0.175	0.0775	–
RSLRVLLPLYFRR	0.675	0.315	–
RSLRVLLPLYFRW	0.677	0.215	–
RSLRVLLPLYFV	0.428	0.25	–
RSLRVLLPLYFW	0.589	0.339	–
RSLRVLLPLYYR	0.657	0.375	–
RSLRVLMPLYFR	0.697	0.254	–
RSLRVWLPLYFR	0.693	0.166	–
RSTRVLLPLYFR	0.684	0.292	–
RVTHLDAIYFRI	0.645	0.471	–
RVTPLDAIYFRI	0.675	0.547	–
RVTRLAAIYFRI	0.38	0.173	–

Sequence	protein stability index (Saccharomyces cerevisiae [3])	protein stability index (Saccharomyces cerevisiae [4])	also measured
RVTRLDAAYFRI	0.704	0.653	–
RVTRLDAIDFRI	0.746	0.668	–
RVTRLDAITFRI	0.72	0.678	–
RVTRLDAIYFEI	0.725	0.69	–
RVTRLDAIYFII	0.111	0.0744	–
RVTRLDAIYFRG	0.701	0.664	–
RVTRLDAIYFRH	0.716	0.604	–
RVTRLDAIYFRIF	0.0962	0.0593	–
RVTRLDAIYFRIQ	0.256	0.218	–
RVTRLDAIYFRK	0.711	0.673	–
RVTRLDAIYFRS	0.72	0.641	–
RVTRLDAIYFRT	0.703	0.546	–
RVTRLDAIYFYI	0.449	0.425	–
RVTRLDAIYRRI	0.721	0.684	–
RVTRLSAIYFRI	0.458	0.22	–
RVTRLVAIYFRI	0.394	0.19	–
RVTRLWAIYFRI	0.377	0.167	–
RVTRRDAIYFRI	0.673	0.485	–
RVTVLDAIYFRI	0.651	0.516	–
RWTRLDAIYFRI	0.528	0.337	–
SLVSLPILLFFR	0.619	0.0746	–
